In patent publication US20170176465, “RNA APTAMER AND SENSOR EMPLOYING SAME” (Kyocera Corporation, published 2017):

Tests used:
[1] = target: Human serum albumin (HSA) (Homo sapiens, UniProt P02768 P02768:25-609); assay: surface acoustic wave sensor; 5'-thiol aptamer; conditions: label: 5'-biotin, 5'-amino or 5'-thiol
Protocol: (§1) (11) A hemoglobin sample having been diluted into 11.6 μM with HBS-P(+MgCl2) was introduced through the passage 15 to the sensing element 3. Then, the amount of phase change occurring after 5 minutes of reaction was measured. Similarly, measurement was performed with employing human serum albumin (HSA) as a sample. Further, as for the hemoglobin sample, measurement was performed on samples of various concentrations.

[2] = target: Hemoglobin (Hb), full length (Homo sapiens, UniProt P69905;P68871 P69905:2-142,P68871:2-147); assay: surface acoustic wave sensor phase change; 11.6 uM Hb; signal rises with Hb concentration; HBS-P + MgCl2; conditions: tags: Abcam ab77858; chain copies: 2,2; label: 5'-biotin, 5'-amino or 5'-thiol
Hemoglobin (Hb), full length, sequence (P69905 2-142, chain 1 of 2): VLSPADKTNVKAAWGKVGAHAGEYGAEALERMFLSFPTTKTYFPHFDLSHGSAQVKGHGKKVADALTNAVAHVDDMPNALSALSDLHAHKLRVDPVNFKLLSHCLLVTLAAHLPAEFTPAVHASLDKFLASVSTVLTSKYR
Hemoglobin (Hb), full length, sequence (P68871 2-147, chain 2 of 2): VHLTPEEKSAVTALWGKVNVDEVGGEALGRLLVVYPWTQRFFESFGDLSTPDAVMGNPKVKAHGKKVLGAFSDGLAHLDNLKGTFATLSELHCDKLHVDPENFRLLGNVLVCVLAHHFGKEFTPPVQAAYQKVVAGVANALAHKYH
Protocol: as §1

Human serum albumin (HSA), sequence (P02768 25-609, one chain of several): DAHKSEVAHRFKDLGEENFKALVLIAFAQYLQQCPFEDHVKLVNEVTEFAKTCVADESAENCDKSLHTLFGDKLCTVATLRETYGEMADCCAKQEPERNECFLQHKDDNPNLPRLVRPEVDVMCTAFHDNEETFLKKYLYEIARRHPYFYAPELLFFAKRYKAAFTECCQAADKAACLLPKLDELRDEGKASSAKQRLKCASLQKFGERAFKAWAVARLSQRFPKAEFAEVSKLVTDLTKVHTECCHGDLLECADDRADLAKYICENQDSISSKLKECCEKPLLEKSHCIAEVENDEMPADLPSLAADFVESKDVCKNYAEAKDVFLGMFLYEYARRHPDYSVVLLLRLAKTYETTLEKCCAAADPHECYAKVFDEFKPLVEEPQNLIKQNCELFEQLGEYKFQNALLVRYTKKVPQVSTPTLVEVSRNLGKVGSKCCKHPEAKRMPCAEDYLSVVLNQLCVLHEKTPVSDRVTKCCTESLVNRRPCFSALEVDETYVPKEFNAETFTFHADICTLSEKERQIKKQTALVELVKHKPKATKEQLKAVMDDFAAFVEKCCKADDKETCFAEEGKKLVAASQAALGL

CGUAUUACGGCAUUAUUAGGACCAAUGCUGAGUACG (ssRNA) [6R_28 partial (36-mer)]
binding result [1]: no binding | binding result [2]: binds
